Reference: US20230136228A1 (LAMKAP BIO ALPHA, published 2023)

T1: shed soluble CEACAM5 (sCEA) (human, UniProt P06731 35-685, limits assumed)
T1 sequence (looked up): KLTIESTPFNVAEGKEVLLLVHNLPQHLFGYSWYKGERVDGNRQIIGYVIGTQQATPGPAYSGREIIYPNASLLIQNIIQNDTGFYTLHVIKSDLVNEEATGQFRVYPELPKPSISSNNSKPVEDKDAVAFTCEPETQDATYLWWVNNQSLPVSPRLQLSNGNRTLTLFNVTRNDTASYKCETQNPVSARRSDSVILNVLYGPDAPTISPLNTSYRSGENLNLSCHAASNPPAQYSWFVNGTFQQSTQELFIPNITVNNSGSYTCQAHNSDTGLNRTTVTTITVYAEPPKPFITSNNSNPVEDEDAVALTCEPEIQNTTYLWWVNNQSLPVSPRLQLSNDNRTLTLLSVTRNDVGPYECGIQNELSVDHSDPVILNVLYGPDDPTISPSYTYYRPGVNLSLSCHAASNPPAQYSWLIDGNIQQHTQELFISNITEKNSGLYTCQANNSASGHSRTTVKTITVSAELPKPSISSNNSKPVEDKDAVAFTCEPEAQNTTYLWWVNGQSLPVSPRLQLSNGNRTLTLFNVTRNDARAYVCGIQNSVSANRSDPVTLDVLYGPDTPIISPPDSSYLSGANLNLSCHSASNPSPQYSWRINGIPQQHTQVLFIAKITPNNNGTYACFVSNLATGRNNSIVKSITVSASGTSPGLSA

T2: human CEACAM5 (carcinoembryonic antigen, CEA), cell surface (human, UniProt P06731 35-685)
T2 construct: whole, on cells; also called CD66e
T2 sequence (looked up): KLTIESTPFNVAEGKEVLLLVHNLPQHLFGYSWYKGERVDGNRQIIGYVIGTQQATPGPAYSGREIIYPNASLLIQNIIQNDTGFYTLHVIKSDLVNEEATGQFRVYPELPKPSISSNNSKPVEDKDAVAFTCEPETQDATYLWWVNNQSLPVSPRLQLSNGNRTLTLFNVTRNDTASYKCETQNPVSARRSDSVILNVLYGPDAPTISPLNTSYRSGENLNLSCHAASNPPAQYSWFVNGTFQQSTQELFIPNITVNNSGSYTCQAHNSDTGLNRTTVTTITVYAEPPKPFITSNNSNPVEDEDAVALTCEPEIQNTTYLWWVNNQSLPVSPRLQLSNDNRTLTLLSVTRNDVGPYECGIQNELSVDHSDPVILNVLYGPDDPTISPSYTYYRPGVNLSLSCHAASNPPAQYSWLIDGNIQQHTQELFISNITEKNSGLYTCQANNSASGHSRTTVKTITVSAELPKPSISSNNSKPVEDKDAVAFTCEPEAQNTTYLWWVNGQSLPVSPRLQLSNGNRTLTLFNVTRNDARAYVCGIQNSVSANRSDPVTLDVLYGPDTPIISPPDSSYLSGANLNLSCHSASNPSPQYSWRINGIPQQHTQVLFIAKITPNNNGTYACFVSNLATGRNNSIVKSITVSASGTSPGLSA

B1: AB1 L3-1/D (bispecific antibody, human IgG1, kappa, lambda, L234A L235A)
heavy: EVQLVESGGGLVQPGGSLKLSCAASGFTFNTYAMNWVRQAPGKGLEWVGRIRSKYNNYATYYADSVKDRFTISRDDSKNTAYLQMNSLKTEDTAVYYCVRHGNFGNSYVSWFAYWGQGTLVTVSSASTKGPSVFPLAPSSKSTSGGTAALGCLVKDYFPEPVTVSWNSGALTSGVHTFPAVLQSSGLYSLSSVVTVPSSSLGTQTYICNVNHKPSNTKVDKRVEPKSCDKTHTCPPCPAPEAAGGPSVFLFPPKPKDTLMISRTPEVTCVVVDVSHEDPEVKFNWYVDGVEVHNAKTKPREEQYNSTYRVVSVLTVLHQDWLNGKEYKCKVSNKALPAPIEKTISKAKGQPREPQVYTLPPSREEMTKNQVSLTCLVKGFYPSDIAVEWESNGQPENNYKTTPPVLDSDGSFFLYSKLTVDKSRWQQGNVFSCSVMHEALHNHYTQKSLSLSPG
light 1: EIVLTQSPATLSLSPGERATLSCRASQSVNSNLNWYQQKPGQAPRLLIYHGSNRATGIPARFSGSGSGTDFTLTISSLEPEDFAVYYCQQFDLRHEHNTFGQGTKVEIKRTVAAPSVFIFPPSDEQLKSGTASVVCLLNNFYPREAKVQWKVDNALQSGNSQESVTEQDSKDSTYSLSSTLTLSKADYEKHKVYACEVTHQGLSSPVTKSFNRGEC
light 2: QTVVTQEPSLTVSPGGTVTLTCRSSTGAVTTSNYANWFQQKPGQAPRGLIGGTNKRAPGTPARFSGSLLGGKAALTLSGAQPEDEAEYYCALWYKQRWVFGGGTKLTVLGQPKAAPSVTLFPPSSEELQANKATLVCLISDFYPGAVTVAWKADSSPVKAGVETTTPSKQSNNKYAASSYLSLTPEQWKSHRSYSCQVTHEGSTVEKTVAPTECS
notes: KL CEAxCD3 bispecific antibody, hIgG1 L234A+L235A
B2: AB60L3-1/N (bispecific antibody, human IgG1, kappa, lambda, L234A L235A)
heavy: EVQLVESGGGLVQPGGSLKLSCAASGFTFNTYAMNWVRQAPGKGLEWVGRIRSKYNNYATYYADSVKDRFTISRDDSKNTAYLQMNSLKTEDTAVYYCVRHGNFGNSYVSWFAYWGQGTLVTVSSASTKGPSVFPLAPSSKSTSGGTAALGCLVKDYFPEPVTVSWNSGALTSGVHTFPAVLQSSGLYSLSSVVTVPSSSLGTQTYICNVNHKPSNTKVDKRVEPKSCDKTHTCPPCPAPEAAGGPSVFLFPPKPKDTLMISRTPEVTCVVVDVSHEDPEVKFNWYVDGVEVHNAKTKPREEQYNSTYRVVSVLTVLHQDWLNGKEYKCKVSNKALAAPIEKTISKAKGQPREPQVYTLPPSREEMTKNQVSLTCLVKGFYPSDIAVEWESNGQPENNYKTTPPVLDSDGSFFLYSKLTVDKSRWQQGNVFSCSVMHEALHNHYTQKSLSLSPG
light 1: EIVLTQSPATLSLSPGERATLSCRASQTVNANLNWYQQKPGQAPRLLIYYASNRATGIPARFSGSGSGTDFTLTISSLEPEDFAVYYCQQFDYHNEHNTFGQGTKVEIKRTVAAPSVFIFPPSDEQLKSGTASVVCLLNNFYPREAKVQWKVDNALQSGNSQESVTEQDSKDSTYSLSSTLTLSKADYEKHKVYACEVTHQGLSSPVTKSFNRGEC
light 2: QTVVTQEPSLTVSPGGTVTLTCRSSTGAVTTSNYANWFQQKPGQAPRGLIGGTNKRAPGTPARFSGSLLGGKAALTLSGAQPEDEAEYYCALWYKQRWVFGGGTKLTVLGQPKAAPSVTLFPPSSEELQANKATLVCLISDFYPGAVTVAWKADSSPVKAGVETTTPSKQSNNKYAASSYLSLTPEQWKSHRSYSCQVTHEGSTVEKTVAPTECS
notes: Kappa-lambda body, lead optimization wave 2

Legend:
human CD3ε [1] = target: T3, human CD3ε (human, UniProt P07766 23-207); assay: flow cytometry, Jurkat cells
T3 construct: whole, on cells; Present on cells as part of the CD3/TCR complex; also called CD3 epsilon
T3 sequence (P07766 23-207): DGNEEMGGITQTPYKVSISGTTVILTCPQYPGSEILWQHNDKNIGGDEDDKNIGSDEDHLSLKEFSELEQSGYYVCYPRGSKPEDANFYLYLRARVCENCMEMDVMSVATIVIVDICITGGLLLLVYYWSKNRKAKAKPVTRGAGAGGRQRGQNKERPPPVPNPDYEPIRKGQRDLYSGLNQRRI

human CD3ε [2] = target: T3, human CD3ε; assay: flow cytometry, primary CD4+ and CD8+ T-cells
[3] = target: T1, shed soluble CEACAM5 (sCEA); assay: cell-based or functional assay
[4] = target: T2, human CEACAM5 (carcinoembryonic …); assay: flow cytometry, CEA positive cells
[5] = target: T2, human CEACAM5 (carcinoembryonic …); assay: cell-based or functional assay
[6] = target: T2, human CEACAM5 (carcinoembryonic …); assay: flow cytometry, MKN-45 cells
Text: Examples of cells that can be used include CEACAM5-positive cell lines such as the gastric adenocarcinoma cell line MKN45 (expressing 155′000 CEACAM5 molecules per cell), or the pancreatic adenocarcinoma cell line HPAF-II (expressing 108′000 CEACAM5 molecules per cell) or the colorectal adenocarcinoma cell line LS174T (expressing 26′000 CEACAM5 molecules per cell) and CEACAM5-negative cell lines, such as the lung carcinoma cell line A549 and the MKN45 CEACAM5-knock out cell line generated by CRISPR-CAS9 methodology. Cell staining and binding assessment can be performed as described above. Binding of the bsAb of the invention at 200 nM, 1000 nM and 5000 nM is 40% and higher compared to binding of TCB2014 (see Table 4 and also FIGS. 11 and 14).

Row | Binder | binding result (human CD3ε [1]) | binding result (human CD3ε [2]) | EC50 fold change compared to no shed CEA condition, sCEA 0 µg/mL (reference) [3] | EC50 fold change compared to no shed CEA condition, sCEA 0.2 µg/mL [3] | EC50 fold change compared to no shed CEA condition, sCEA 1 µg/mL [3] | EC50 fold change compared to no shed CEA condition, sCEA 5 µg/mL [3] | binding higher than TCB2014 (at 200 nM) [4] | Killing EC50, HPAFII cells (TDCC, LDH release) [5] | Killing EC50, LS174T cells (TDCC, LDH release) [5] | Killing EC50, MKN45 cells (TDCC, LDH release) [5] | EC50 [6] | Top MFI value [6] | binding higher than TCB2014 (at 200 nM, 1000 nM and 5000 nM) [6]
1 | B1 | binds | – | – | – | – | – | – | – | – | – | – | – | –
2 | B2 | – | binds | 1 fold | 0.9 fold | 0.8 fold | 1.3 fold | ≥ 40% | 0.28 nM | 0.21 nM | 0.13 nM | 64.1 nM | 989000 MFI | ≥ 40%
